Reference: PMC3005221

Legend:
[1] = target: FITC-β-Ala-β-Ala-LQDGF; experiment: fluorescence polarisation
[2] = target: FITC-β-Ala-β-Ala-RARGG (human); experiment: fluorescence polarisation
[3] = target: FITC-β-Ala-β-Ala-RGMGG (human); experiment: fluorescence polarisation
[4] = target: FITC-β-Ala-β-Ala-FDGFM; experiment: fluorescence polarisation
[5] = target: FITC-β-Ala-β-Ala-YGFGG (human); experiment: fluorescence polarisation
[6] = target: FITC-β-Ala-β-Ala-RLRGG (human); experiment: fluorescence polarisation
[7] = target: FITC-β-Ala-β-Ala-NALGG; experiment: fluorescence polarisation
[8] = target: FITC-β-Ala-β-Ala-STLGG (human); experiment: fluorescence polarisation
[9] = target: FITC-β-Ala-β-Ala-IAKGG; experiment: fluorescence polarisation
[10] = target: FITC-β-Ala-β-Ala-ALRGG (human); experiment: fluorescence polarisation
[11] = target: GST (Schistosoma japonicum) [GST: P08515]; details: cited from earlier work
[12] = target: ubiquitin C-terminal five-residue peptide (Homo sapiens); details: cited from earlier work
[13] = target: ubiquitin (Homo sapiens) (UniProt P0CG48); details: cited from earlier work

Chain of HDAC6 BUZ (Q9UBN7 1111-1209): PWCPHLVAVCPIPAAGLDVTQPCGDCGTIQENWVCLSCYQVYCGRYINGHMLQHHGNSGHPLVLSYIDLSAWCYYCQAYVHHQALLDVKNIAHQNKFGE
Chain of Ubp-M BUZ (Q9Y5T5 22-142): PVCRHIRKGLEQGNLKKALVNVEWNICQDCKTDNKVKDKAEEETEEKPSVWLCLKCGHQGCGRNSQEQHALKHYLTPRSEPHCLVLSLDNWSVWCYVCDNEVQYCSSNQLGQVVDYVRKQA

In the case of “GST-Abl2 SH2 domain fusion protein (from UniProt P42684 173-263) (domain or fragment)”, the Kd [1] is reported as 4.6 µM.
In the case of “GST-HDAC6 BUZ (from UniProt Q9UBN7 1059-1215) (domain or fragment)”, the Kd [2] is reported as 0.47 µM, the Kd [1] is reported as 4 µM and the Kd [3] is reported as 1.3 µM. For the same substance, the Kd [4] was 10.8 µM, the Kd [5] was 6.2 µM and the Kd [6] was 0.34 µM. For the same substance, the Kd [7] was 0.79 µM, the Kd [8] was 3.7 µM and the Kd [9] was 8.8 µM. It also gave a Kd [10] of 2.5 µM.
In the case of GST (from UniProt P08515), the Kd [11] is given as 0.33 µM.
For Ubp-M BUZ (from UniProt Q9Y5T5), the Kd [12] is listed as 15.9 µM.
For HDAC6 BUZ (from UniProt Q9UBN7), the Kd [13] is given as 0.06 µM.
